Laboratory results reported in the Human Domainome abundance scans (Beltran et al. 2025).

B1: Glucocorticoid receptor, residues 419 to 494; numbered along this chain, P04150 (parent)
chain: KLCLVCSDEASGCHYGVLTCGSCKVFFKRAVEGQHNYLCAGRNDCIIDKIRRKNCPACRYRKCLQAGMNLEARKTK
B2: E3 ubiquitin-protein ligase NEDD4-like, residues 539 to 589; numbered along this chain, Q96PU5 (parent)
chain: KTSLNPNDLGPLPPGWEERIHLDGRTFYIDHNSKITQWEDPRLQNPAITGP

Variants of: B1
Assay: abundance fitness (aPCA) (normalised: wild type 0, dead -1); higher = more abundant; growth selection in yeast, the domain comes from the species named
Settings: Homo sapiens

Abundance fitness of substitutions, site by site:
L2: P -0.39; H -0.002; D -0.045; Y 0.14; V -0.02; A 0.056; R 0.032; I 0.114; N 0.092; K 0.063; G -0.017; C -0.068; Q 0.029; S -0.023; M -0.024; F 0.069; E 0.049
C3: P -0.84; L -0.918; I -0.684; M -0.763; N -0.67; H -0.737; S -0.728; R -0.771; K -0.823; Q -0.686; T -0.818; V -1.13; E -0.787; F -0.719; D -0.653
K1: Y -0.101; D -0.002; A -0.066; M 0.046; W -0.301; C -0.14; Q -0.293; H -0.304; N -0.12; R -0.141; E -0.048; T -0.324; G -0.123; S -0.062; L -0.236; I -0.143

Variants of: B2
Assay: as above
Settings: Homo sapiens

Abundance fitness: each site, then its substitutions
T36: L -0.558; C 0.086; G -0.224; P -0.608; V -0.263; W -0.491; M -0.208; E -0.119; H 0.032; Q -0.336; F -0.261; R -0.291; N -0.469; A -0.341
K34: W -0.547; C -0.223; Y -0.39; I -0.875; L -0.284; M -0.105; R -0.119; F -0.513; G -0.022; A -0.176; S -0.197; N -0.053; E -0.251; H -0.087; T -0.218; V -0.58; Q 0.076; D -0.063; P -0.857
E39: Y -0.412; N -0.009; L -0.313; W -0.456; C -0.194; F -0.45; R -0.208; Q -0.362; V -0.233; K -0.216; I -0.251; A -0.15; D -0.077; G -0.183; T -0.105; S -0.1; M -0.245; H -0.153
I48: V 0.132; L -0.123; F -0.306; T 0.051; M -0.176; Q 1.1; G 0.025
S33: W -0.802; V -0.385
Q37: T 0.21; H 0.068; N -0.511; G -0.723; C -0.207; V -0.397; E -0.742; K -0.357; Y -0.33; F -0.358; M -0.231; W -0.564; D -0.521; A -0.443; S -0.014; L -0.703
R42: W -1.18; N -0.687; L -0.787; C -0.847; D -1.15; H -0.67; T -0.71; F -1.09; G -0.656; S -0.661; Y -1.05; E -0.752; M -0.718; P -0.474; K -0.352
Q44: R -0.039; M -0.049; Y -0.336; W -0.27; C -0.15; F -0.218; A -0.028; N -0.091; G -0.022; P -0.135; K 0.11; I -0.016; H -0.155; T -0.078; V -0.114; D 0.028; S -0.054; E 0.074
D40: M -0.639; C -0.639; G -0.731; V -0.706; K -0.585; L -0.654; A -0.528; S -0.492; F -0.566; P -0.401; T -0.919; Y -0.53; E -0.587; I -0.574; Q -0.878; H -0.16
A47: H 0.235; K -0.204; T -0.056; F -0.204; L -0.083; D 0.218; P 0.008; C -0.049; W -0.296; S -0.04; G 0.01; M -0.212; N 0.011; V -0.042; R 0.004; Q 0.193; E -0.002; I -0.167
P51: G 0.13; S -0.336; V -0.65; T 0.009; E -0.109; R -0.345; C -0.232
P41: H -1.08; D -0.98; Y -1.15; W -1.11; I -1.28; Q -1.14; C -0.672; N -0.86; T -0.875; R -0.758; F -1.1; S -0.827; K -0.868; E -0.718; V -0.848; M -0.367; A -0.947; G -0.742
L43: C -0.11; W -0.333; F -0.104; E -0.042; R -0.116; I -0.256; P -0.089; T -0.069; H -0.131; V -0.088; Y -0.192; D -0.139; N -0.183; A 0.007; Q -0.144; G -0.086; M -0.153
T49: F -0.165; G -0.045; M -0.091; P -0.135; N -0.313; R -0.042; E -0.144; K -0.267; A -0.121; V -0.198; Q -0.199; S -0.077; H -0.089; I -0.226; Y -0.286; L -0.104; D -0.086; W -0.213
I35: G -0.301; A 0.008; T 0.04; S -0.079; K 0.065; Y -0.291; M -0.239; R 0.048; D -0.128; V -0.163; C 0.002; Q 0.029; N -0.042; L -0.035; F -0.16
W38: A -0.014; H -0.121; Q -0.07; M -0.127; P -0.223; K -0.029; Y -0.041; V -0.146; F 0.066; E 0.068; D 0.002; T 0.058; L -0.173; G -0.249; I -0.162; N -0.059
N45: E -0.046; Y -0.157; W -0.331; A -0.028; G -0.045; K 0.029; S -0.011; I -0.099; F -0.634; L -0.094; Q -0.102; C -0.103; R 0.003; D -0.213; M -0.163; V -0.106; T -0.007; H -0.068
P46: K 0.028; L 0.161; Q -0.27; I -0.171; S -0.048; E -0.39; N -0.263; C -0.098; H -0.105; T -0.051; G 0.01; W -0.249; F -0.228; V -0.014; A -0.06; Y -0.317; M 0.084; D -0.028
G50: T 0.166; P -0.213; M -0.284; C -0.329; R -0.18; Q -0.351; W -0.143; K 0.305; E 0.223; H -0.555; S -0.153; D 0.029; V -0.064; Y -0.202; A 0.012; L 0.118
